According to PMC4481223:
Values joined by “and” are separate entries in the source; they are usually repeats but may differ in a detail not shown here. Equal entries are not always repeated.

Columns and labels:
[1] = molecular target: fused Cp (genetically-fused dimer of the hepatitis B virus core protein assembly domain) (hepatitis B virus); assay: SEC; pooled peaks 2-4 of the fused Cp disassembly re-run on a 26/60 Superdex-200 column calibrated with molecular weight standards, 1.0 ml/min; masses from the standard curve
[2] = molecular target: fused Cp (genetically-fused dimer of the hepatitis B virus core protein assembly domain) (hepatitis B virus); assay: native MS; non-covalent ESI-MS of oligomer samples isolated by SEC, button-dialysed into 100 mM ammonium acetate pH 6.8 (fused Cp samples at pH 9.5)

fused Cp (genetically-fused dimer of the hepatitis B virus core protein assembly domain)
stoichiometry N [1]: 2 copies and 3 copies and 5 copies | stoichiometry N [2]: 2 and 3
